We go through one molecule from patent US20160176970A1 (published 2016).

This assay concerns the target T1, pig α2β1 integrin (pig, UniProt F1SMF4 28-1178; Q9GLP0 21-798).
T1 construct: whole, on cells; Tested with whole blood
Nature of the assay: FACS on whole blood, PE-coupled goat anti-mouse IgG.

B1: anti-α2 integrin mAb purified from hybridoma supernatant (murine) (antibody, mouse IgG2a, kappa)
light: NIVLTQSPASLAVSLGQRATISCRASESVESYGNSFIYWYQQKPGQAPKLLIYLASNLASGVPARFSGSGSRTDFTLTIDPVEADDAATYYCQQNNEDPYTFGGGTKLEIKRADAAPTVSIFPPSSEQLTSGGASVVCFLNNFYPKDINVKWKIDGSERQNGVLNSWTDQDSKDSTYSMSSTLTLTKDEYERHNSYTCEATHKTSTSPIVKSFNRNEC
heavy: QVQLHQPGAELVKPGAPVKLSCKASGYTFTSYWMNWVKQRPGRGLEWIGRIDPSDSETHYNQKFKDKATLTVDKSSSTAYIQLSSLTSEDSAVYYCAKVGRGYFDYWGQGTTLTVSSAKTTAPSVYPLAPVCGDTTGSSVTLGCLVKGYFPEPVTLTWNSGSLSSGVHTFPAVLQSDLYTLSSSVTVTSSTWPSQSITCNVAHPASSTKVDKKIEPRGPTIKPCPPCKCPAPNLLGGPSVFIFPPKIKDVLMISLSPIVTCVVVDVSEDDPDVQISWFVNNVEVHTAQTQTHREDYNSTLRVVSALPIQHQDWMSGKEFKCKVNNKDLPAPIERTISKPKGSVRAPQVYVLPPPEEEMTKKQVTLTCMVTDFMPEDIYVEWTNNGKTELNYKNTEPVLDSDGSYFMYSKLRVEKKNWVERNSYSCSVVHEGLHNHHTTKSFSRTPGK
notes: also called α2 mAb from hybridoma supernatant; anti-α2 integrin monoclonal mouse antibody
With B1, the binding result is “no binding”.
